This is an account of results in doi:10.1101/2025.08.17.670156 (bioRxiv, 2025).

The data set concerns the molecule itself. In words: deep-blue autofluorescence of amyloid fibrils.

Changes are numbered by the printed parent chain. Names may count otherwise.

B1: double plant homeodomain fingers 3a (DPF3 isoform a), wild type (natural protein, human, UniProt Q92784-2 1-357, looked up)
chain: MATVIHNPLKALGDQFYKEAIEHCRSYNSRLCAERSVRLPFLDSQTGVAQNNCYIWMEKRHRGPGLAPGQLYTYPARCWRKKRRLHPPEDPKLRLLEIKPEVELPLKKDGFTSESTTLEALLRGEGVEKKVDAREEESIQEIQRVLENDENVEEGNEEEDLEEDIPKRKNRTRGRARGSAGGRRRHDAASQEDHDKPYVCDICGKRYKNRPGLSYHYAHTHLASEEGDEAQDQETRSPPNHRNENHRPQKGPDGTVIPNNYCDFCLGGSNMNKKSGRPEELVSCADCGRSAHLGGEGRKEKEAAAAARTTEDLFGSTSESDTSTFHGFDEDDLEEPRSCRGRRSGRGSPTADKKGSC
Take B1: the binding result is given as “binds”.

B2: DPF3a phosphomimetic S348E (natural protein, human, UniProt Q92784-2 1-357, looked up)
chain: B1 chain with S348E
For B2, the binding result is recorded as “binds”.

B3: DPF3a phosphomimetic S138E (natural protein, human, UniProt Q92784-2 1-357, looked up)
chain: B1 chain with S138E
As for B3, the binding result is reported as “binds”.
